These results are taken from PMC12614216.

Assay [1] has as its target OrfM (OB-fold protein encoded by ICESt3 of Streptococcus thermophilus), purified, untagged (Streptococcus thermophilus (ICESt3)). In words: SEC-MALS; isolated OrfM or OrfL at 30 µM; Superdex 200 Increase 10/300 GL; 20 mM Tris-HCl pH 7.5, 150 mM NaCl; monomer and dimer. On the technique in general: In gel filtration, larger molecules generally elute earlier.
In assay [2] the target is OrfL (OB-fold protein encoded by ICESt3 of Streptococcus thermophilus), purified, untagged (Streptococcus thermophilus (ICESt3)). Description: SEC-MALS; OrfL and OrfM mixed at 1:1 and 2:1 OrfL:OrfM molar ratios; Superdex 200 Increase 10/300 GL; 20 mM Tris-HCl pH 7.5, 150 mM NaCl.
Assay [3] shares this target. Description: ITC; OrfM at 280 µM injected into OrfL at 28 µM; 298 K; 20 mM Tris-HCl pH 7.5, 300 mM NaCl; single binding site model. On the technique in general: ITC needs no label: the signal is the heat of the interaction.
Assay [4] has the same target. In words: switchSENSE (fluorescence proximity sensing); OrfL covalently coupled to a 48-mer DNA nanolever on the chip; OrfM injected at 0.625 to 10 µM; PE40 buffer (10 mM NaP pH 7.4, 40 mM NaCl, 0.05% Tween 20); 25°C.
Assay [5] shares this target. In words: SEC-MALS; isolated OrfM or OrfL at 30 µM; Superdex 200 Increase 10/300 GL; 20 mM Tris-HCl pH 7.5, 150 mM NaCl; monomer and dimer.

What is called stoichiometry N is the number of molecules, sites or subunits per partner or assembly. The term Kd denotes the constant that tells how readily two partners part at equilibrium. High values mean weaker binding, low ones tighter binding. The koff is a measure of how fast the partners let go of each other. Read a high koff as a short-lived complex. As usually defined, the kon is the rate constant with which the complex forms. Lower therefore signals slow association. In the case of “OrfM (OB-fold protein encoded by ICESt3 of Streptococcus thermophilus), purified, untagged (natural protein)”, in assay [1], the fraction of the injected protein found as dimer was determined as 5% and the stoichiometry N came out at 2. In assay [2], the fraction of the sample found as the complex (1:1 ratio) amounted to 92% and the stoichiometry N stood at 1. Besides, in assay [3], the Ka was 7.1e+06 M⁻¹, the Kd is 140 nM, the dH was -35.9 kcal/mol and the stoichiometry N was determined as 0.87. In assay [4], this substance displayed a Kd of 311 nM, a koff of 0.019 s⁻¹ and an on-rate constant (kon) of 62000 M⁻¹ s⁻¹.

“OrfL (OB-fold protein encoded by ICESt3 of Streptococcus thermophilus), purified, untagged (natural protein)” came in with a stoichiometry N in assay [5] of 2.
